Data published in PMC2606027 (2009).

B1: LEDGF IBD fused to Gal4 transcription activation domain (WT prey) [human] / Full-length HIV-1 IN fused to the DNA binding domain of Gal4 (WT bait) [HIV-1] (parent complex)
chain 1: SMDSRLQRIHAEIKNSLKIDNLDVNRCIEALDELASLQVTMQQAQKHTEMITTLKKIRRFKVSQVIMEKSTMLYNKFKNMFLV
chain 2: not shown

Variants of: B1
Assay: yeast two-hybrid (β-galactosidase reporter); S. cerevisiae Y187; quadruplicate measurements; read off a plot

First: chain 1 D20N
Second: chain 1 K55E, chain 1 K56S, chain 1 R59E
The percent of parent of the first is lower: ~1.2 % of WT/WT for the first, ~1.3 % of WT/WT for the second.

In the case of chain 1 K55E, chain 1 K56E, chain 1 R59E, the percent of parent is reported as ~1.4 % of WT/WT.

Variants of: B1
Assay: yeast two-hybrid (β-galactosidase reporter); S. cerevisiae Y187; quadruplicate measurements

Going from chain 1 K14E to chain 1 K46E, the percent of parent falls from 139 % of WT/WT to 129 % of WT/WT.
